# Laboratory results published in patent publication US20130137856A1, “PROTEIN BINDING DOMAINS STABILIZING FUNCTIONAL CONFORMATIONAL STATES OF GPCRS AND USES THEREOF” (priority 2010, published 2013).
# “Also recorded” adds a separate entry of the source.
# B1: NB69: β2AR-specific nanobody, SEQ ID NO:26 (protein, listed as Lama glama)
# VHH: QVQLQESGGGLVQPGGSLRLSCAASGSIFSINAMGWYRQAPGKQRDLVASITSGGSTNYADSVKGRFTISRDNAKNTVYLQMNSLKPEDTAVYYCNVQGTGPSSWLFNEYDYWGQGTQVTVSS
# B2: NB67: β2AR-specific nanobody, SEQ ID NO:20 (protein, listed as Lama glama)
# VHH: QVQLQESGGGLVQAGGSLRLSCAASGTISSFIAMGWYRQSPGKQRELVAGITSGGETNYEDSVKGRFTISRDNAKNTLYLQMNTLKPEDTAVYYCNAQVFADIFNLINYWGQGTQVTVSS
# B3: NB84: β2AR-specific nanobody, probably CA2784, SEQ ID NO:29; CA3484 carries the same short notation (protein, listed as Lama glama)
# VHH: QVQLQESGGGLVQAGGSLRLSCAASGSIFSINAMGWYRQAPGKQRELVAAITSGGSTTYADSVKGRFTVSRDNAKNTVYLQMIRLKPEDTAVYYCHVRDIYSDFLGQYEYDYWGQGTQVTVSS
# B4: NB72: β2AR-specific nanobody, probably CA2772, SEQ ID NO:24; CA3472 carries the same short notation (protein, listed as Lama glama)
# VHH: QVQLQESGGGLVQPGGSLRLSCAASGFTFSGYAMNWVRQAPGKGPEWVSAINSGGGSTSYADSVKGRFTISRDNAKNTVYLQMNSLKPEDTAVYYCHARDIYSDFLGQYEYDYWGQGTQVTVSS
# B5: NB65: β2AR-specific nanobody, SEQ ID NO:5 (protein, listed as Lama glama)
# VHH: QVQLQESGGGLVQAGGSLRLSCAASGSIFSINTMGWYRQAPGKQRELVAAIHSGGSTNYADSVRGRFTISRDNAKNTVYLQMNSLKPEDTAVYYCNVKDYGAVLYEYDYWGQGTQVTVSS
# B6: NB80: β2AR-specific nanobody, SEQ ID NO:4; lead nanobody stabilizing the active state (protein, listed as Lama glama)
# VHH: QVQLQESGGGLVQAGGSLRLSCAASGSIFSINTMGWYRQAPGKQRELVAAIHSGGSTNYANSVKGRFTISRDNAANTVYLQMNSLKPEDTAVYYCNVKDYGAVLYEYDYWGQGTQVTVSS
# B7: NB71: β2AR-specific nanobody, SEQ ID NO:25 (protein, listed as Lama glama)
# VHH: QVQLQESGGGLVQPGGSLRLSCAASGFAFSSYELRWYRQAPGKQHELVAGITTGGNTYYADSVKGRFTISRDNAKNTVYLQMSNLRPEDTAVYACNANWDLLSDYWGQGTQVTVSS
# Experiments:
# β2AR [1] = molecular target: T1, β2AR (Homo sapiens, UniProt P07550); experiment: Monobromobimane (mBBr) fluorescence of labeled purified β2AR; type: biochemical; conditions: for mBBr fluorescence change of isoproterenol-bound β2AR with nanobody (active state): 1 μM nanobody plus full agonist isoproterenol
# From the text: To investigate the effect of nanobodies on movement of the cytoplasmic domain of TM6 we labeled purified β2AR at C265 with monobromobimane (mBB-β2AR). […] In mBB-β2AR, the addition of agonist together with G protein results in larger fluorescent changes than either agonist or G protein alone. This is compatible with the cooperative interactions observed in agonist competition binding assays (Yao et al. 2009).
# Purified β2AR was reacted with 1:1 equivalent of monobromobimane (mBBr, Invitrogen) in 100 mM NaCl, 20 mM HEPES, pH 7.5, 0.1% dodecyl maltoside and incubated overnight on ice in the dark. The fluorophore-labeled receptor was purified right before use by gel filtration on a desalting column equilibrated with the same buffer. […] All experiments were performed at 25° C. […] To determine the effect of nanobodies and ligands, three individual labeled protein samples were incubated with 1 μM nanobody or 10 μM Isoproterenol or both. Emission spectra of the samples were taken after 1 hour incubation.
# β2AR [2] = molecular target: T1, β2AR; experiment: [3H]-DHA competition binding on Sf9 insect cell membranes expressing β2AR, with or without nanobody; parameters: recombinant β2AR truncated at Gly365 (β2AR-365); made in house; host or cells: Sf9 insect cells (membranes); conditions: agonist competition binding with versus without nanobody
# From the text: Panel b: Dose-response competition binding experiments on Sf9 insect cell membranes expressing β2AR.
# β2AR [3] = experiment: Size exclusion chromatography of nanobody with purified detergent-solubilized β2AR; type: binding, human; conditions: 20 μM β2AR bound to an agonist, 40 μM nanobody
# Method: The mixture was then analyzed by Size Exclusion Chromatography (SEC), which separates protein on the basis of size. Seven of the nanobodies bound to purified β2AR and migrated as a complex on SEC only in the presence of agonist and not an inverse agonist (an example is shown in FIG. 1, Panel a, FIG. 3 and FIG. 4).
# Agonist selective nanobodies were identified by size exclusion chromatography following incubation of 20 μM agonist or inverse agonist- (carazolol-) bound β2AR-365N for one hour at RT in the absence or presence of 40 μM nanobody.
# β2AR [4] = molecular target: T1, β2AR; experiment: Competition radioligand binding on commercial insect cell membranes with full-length human β2AR, Nb80 versus irrelevant Nb; conditions: radioligand displacement with Nb80 versus irrelevant Nanobody
# [5] = Effect of Nb80 on ligand affinity of an unrelated receptor; type: binding; conditions: data not shown
# human β1AR = human β1AR (Homo sapiens, UniProt P08588); experiment: [3H]-DHA competition binding on β1AR with and without Nb80
# Sequence of human β1AR (P08588 whole entry): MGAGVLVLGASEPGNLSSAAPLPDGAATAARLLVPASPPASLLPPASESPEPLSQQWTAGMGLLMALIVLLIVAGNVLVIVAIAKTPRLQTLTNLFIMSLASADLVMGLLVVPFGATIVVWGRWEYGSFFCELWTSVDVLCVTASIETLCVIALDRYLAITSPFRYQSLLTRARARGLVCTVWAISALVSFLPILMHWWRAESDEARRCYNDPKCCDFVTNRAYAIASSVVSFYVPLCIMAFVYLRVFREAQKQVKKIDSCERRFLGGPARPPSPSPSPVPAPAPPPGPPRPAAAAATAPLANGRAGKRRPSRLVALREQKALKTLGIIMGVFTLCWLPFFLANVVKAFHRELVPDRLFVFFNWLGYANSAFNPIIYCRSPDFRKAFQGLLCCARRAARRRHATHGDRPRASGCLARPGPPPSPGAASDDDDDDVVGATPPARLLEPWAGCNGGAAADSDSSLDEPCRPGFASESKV
# From the text: Active state stabilizing Nanobodies that are cross-reactive to related receptors can be used as a tool to stabilize a conformational state of those related receptors. […] Using the PISA server (Krissinel & Henrick, 2007) and based on the crystal structure of the Nb80-β2AR complex, 30 β2AR AA residues were identified to interact with Nb80 in the β2AR-Nb80 interface. […] The remaining interface residues are lysines in β2AR and have been substituted by arginines in β1AR corresponding to conserved substitutions (shown in grey boxes in FIG. 17). It thus appears that both receptors share a very similar binding site for Nb80. Based on this analysis, we also measured the effect of Nb80 on the affinity of […] for the agonist isoproterenol and the inverse agonist CGP20712A (FIG. 18).
# β2AR-T4L = experiment: [3H]-DHA competition binding on β2AR-T4L reconstituted in HDL particles; parameters: species or system human
# β2AR [6] = molecular target: T1, β2AR; experiment: [3H]-DHA competition binding on β2AR reconstituted in HDL particles; parameters: recombinant β2AR truncated at Gly365 (β2AR-365); made in house; host or cells: Sf9 insect cells (membranes)
# β2AR [7] = molecular target: T1, β2AR; experiment: Bimane fluorescence spectroscopy on mBB-β2AR reconstituted in HDL particles; conditions: Nb80 with 10 μM isoproterenol
# β2AR [8] = molecular target: T1, β2AR; experiment: Fluorescent (CPM) thermal stability assay of detergent-solubilized β2AR
# Method: (§1) The effect of conformational selective nanobodies on the thermostability and the subsequent aggregation of the β2AR receptor was analyzed using a fluorescent thermal stability assay (FIG. 13) and size exclusion chromatography (FIG. 14).
# The fluorescent thermal stability assay makes use of the thiol-specific fluorochrome N-[4-(7-diethylamino-4-methyl-3-coumarinyl)phenyl]maleimide (CPM) to measure the chemical reactivity of the native cysteines embedded in the protein interior as a sensor for the overall integrity of the folder state of membrane proteins (Alexandrov et al. 2008). For the fluorescent thermal stability assay, detergent-solubilized receptor (in 0.1% dodecylmaltoside, 100 mM NaCl and 20 mM Hepes pH 7.5) was pre-incubated with isoproterenol (10 μM) in the presence or absence of a 2:1 molar excess of Nb80 for one hour at RT. Samples were then mixed with CPM fluorophore and incubated for two minutes at temperatures ranging from 10° C. to 94° C. and fluorescence emission was collected. […] Unfolding transitions could be described by a simple two-state model, including the native (folded) and the denaturated state, representing the lower and upper plateaus of the melting curves.
# β2AR [9] = molecular target: T1, β2AR; experiment: Temperature-induced aggregation of β2AR analyzed by SEC; conditions: DDM-solubilized β2AR, 10 μM isoproterenol, 2:1 molar excess of Nb80, 10 minutes at increasing temperatures
# Method: as §1
# We also analyzed the effect of Nb80 on the thermal unfolding and aggregation of the agonist-bound receptor by size exclusion chromatography (SEC). For this experiment, dodecylmaltoside-solubilized receptor was pre-incubated with isoproterenol (10 μM) in the presence or absence of a 2:1 molar excess of Nb80 for 45 minutes at RT. Samples were next incubated for 10 minutes at increasing temperatures and subsequently analyzed by SEC (FIG. 14).
molecule,measurement,setting,value
B1,mBBr fluorescence change of isoproterenol-bound β2AR with nanobody (active state),β2AR [1]; listed as 69,Comparable results; also recorded: stabilize a more active state
same,Enhancement of β2AR affinity for the agonist isoproterenol in the presence of the nanobody,β2AR [2],two- to thirty-fold
same,Complex formation with agonist-bound β2AR on SEC,β2AR [3],complex formation
B2,mBBr fluorescence change of isoproterenol-bound β2AR with nanobody (active state),β2AR [1]; listed as 67,Comparable results; also recorded: stabilize a more active state
same,Enhancement of β2AR affinity for the agonist isoproterenol in the presence of the nanobody,β2AR [2],two- to thirty-fold
same,Complex formation with agonist-bound β2AR on SEC,β2AR [3],complex formation
B3,mBBr fluorescence change of isoproterenol-bound β2AR with nanobody (active state),β2AR [1]; listed as 84,Comparable results; also recorded: stabilize a more active state
same,Enhancement of β2AR affinity for the agonist isoproterenol in the presence of the nanobody,β2AR [2],two- to thirty-fold
same,Complex formation with agonist-bound β2AR on SEC,β2AR [3],complex formation
B4,mBBr fluorescence change of isoproterenol-bound β2AR with nanobody (active state),β2AR [1]; listed as 72,Comparable results; also recorded: stabilize a more active state
same,Enhancement of β2AR affinity for the agonist isoproterenol in the presence of the nanobody,β2AR [2],two- to thirty-fold
same,Complex formation with agonist-bound β2AR on SEC,β2AR [3],complex formation
B5,mBBr fluorescence change of isoproterenol-bound β2AR with nanobody (active state),β2AR [1]; listed as 65,Comparable results; also recorded: stabilize a more active state
same,Enhancement of β2AR affinity for the agonist isoproterenol in the presence of the nanobody,β2AR [2],two- to thirty-fold
same,Complex formation with agonist-bound β2AR on SEC,β2AR [3],complex formation
B6,Effect of Nb80 on β2AR affinity for agonists and antagonists,β2AR [4],increases β2AR affinity for agonists but not for antagonists
same,Effect of Nb80 on unrelated receptors,[5],No such effect
same,mBBr fluorescence change of isoproterenol-bound β2AR with nanobody (active state),β2AR [1],larger changes were observed when both agonist and nanobody were added together; also recorded: stabilizes a more active state
same,mBBr fluorescence change of β2AR with nanobody alone,"β2AR [1]; Nb80 alone, no agonist",relatively small changes in fluorescence
same,Conformational selectivity of Nb80 binding to human β1AR,human β1AR,selectively binds the active conformation
same,Effect of Nb80 on affinity of the agonist isoproterenol for β1AR,human β1AR; [3H]-DHA competition,increased affinity
same,Effect of Nb80 on β1AR affinity for CGP20712A,human β1AR; [3H]-DHA competition,does not change the affinity
same,Enhancement of β2AR affinity for the agonist isoproterenol in the presence of the nanobody,β2AR [2],two- to thirty-fold
same,Increase of isoproterenol affinity in the presence of Nb80,β2AR-T4L; β2AR-T4L/HDL with Nb80 versus without,60 fold
same,"Effect of Nb80 on affinity for the inverse agonist ICI-118,551","β2AR-T4L; β2AR-T4L/HDL, ICI-118,551 competing against [3H]-DHA",does not increase the affinity
same,Complex formation with agonist-bound β2AR on SEC,β2AR [3],β2AR-agonist-Nb80 complex formation
same,Increase of isoproterenol affinity in the presence of Nb80,β2AR [6]; β2AR/HDL with Nb80 versus without,95 fold
same,"Effect of Nb80 on affinity for the inverse agonist ICI-118,551","β2AR [6]; β2AR/HDL, ICI-118,551 competing against [3H]-DHA",does not increase the affinity; also recorded: little effect
same,Effect on bimane fluorescence in the presence of isoproterenol,β2AR [7],increased
same,Apparent melting temperature for β2AR with Nb80,"β2AR [8]; DDM-solubilized, isoproterenol-bound β2AR, 2:1 molar excess of Nb80",24 °C
same,Increase of the melting temperature (Tm) of the agonist-bound receptor,β2AR [8]; isoproterenol (10 μM)-bound β2AR with versus without Nb80,12 °C
same,Effect on temperature-induced aggregation of the agonist-bound receptor,β2AR [9],protects the agonist-bound receptor against temperature-induced aggregation
B7,mBBr fluorescence change of isoproterenol-bound β2AR with nanobody (active state),β2AR [1]; listed as 71,Comparable results; also recorded: stabilize a more active state
same,Enhancement of β2AR affinity for the agonist isoproterenol in the presence of the nanobody,β2AR [2],two- to thirty-fold
same,Complex formation with agonist-bound β2AR on SEC,β2AR [3],complex formation
